Source: US20150104443A1 (CHONG KUN DANG PHARMACEUTICAL, published 2015)
Where a chain is given by its changes, count along the chain named. Blank lines part the entries; values can stand above or below the binder they belong to.

Columns and labels:
ErbB2 [1] = target: T1, ErbB2 (UniProt P04626 23-652, limits assumed); assay: cell-based or functional assay
ErbB2 [2] = target: T1, ErbB2; assay: BIAcore 2000 SPR, ErbB2 amine-coupled to the chip, antibody injected
ErbB2 [3] = target: T1, ErbB2; assay: BIAcore 2000 SPR, ratio of KD values

inhibition of NCI-N87 cell proliferation (WST-8, 6 days), IC50 (ErbB2 [1]): 10.3 nM
Kd (ErbB2 [2]): 1.07 nM
koff (ErbB2 [2]): 0.000688 s⁻¹
kon (ErbB2 [2]): 644000 M⁻¹ s⁻¹
B1: humanized antibody A091 (antibody, V domains shown)
VH: EVQLVESGGGLVQPGGSLRLSCAASGFNIKDTYIHWVRQARGKGLEWVARIYPTNGYTRYADSVKGRFTISADTSKNTAYLQMNSLRAEDTAVYYCSRWGGWGFYAFALWGQGTLVTVSS
VL: DIQMTQSPSSLSASVGDRVTITCRASQDVNTAVAWYQQKPGKAPKLLIYTTTWPYSGVPSRFSGSRSGTDFSLTISSLQPEDFATYYCQQYYNTPVTFGQGTKVEIK
notes: Expressed as a whole humanized antibody in CHO-s cells

inhibition of NCI-N87 cell proliferation (WST-8, 6 days), IC50 (ErbB2 [1]): 4.3 nM
Kd (ErbB2 [2]): 0.533 nM
koff (ErbB2 [2]): 0.000278 s⁻¹
kon (ErbB2 [2]): 522000 M⁻¹ s⁻¹
B2: humanized antibody A058 (antibody, V domains shown)
VH: B1 VH with R41P
VL: B1 VL with T50S, T51A, T52S, W53F, P54L, S72T, Y91H, N93Q, V96A, T97S
notes: as for B1

fold increase of affinity against the parent antibody 4D5 (ErbB2 [3]): ~2 fold
Kd (ErbB2 [2]): 0.297 nM
koff (ErbB2 [2]): 0.00012 s⁻¹
kon (ErbB2 [2]): 404000 M⁻¹ s⁻¹
B3: humanized antibody AH16 (antibody, V domains shown)
VH: B1 VH with R41P, G100N, G101A, W102K, A106S, A108V, L109H
VL: not shown
notes: as for B1
